Data: article PMC10743139, “Discovery and Engineering of a Novel Bacterial L-Aspartate α-Decarboxylase for Efficient Bioconversion” (Foods, 2023)

B1: BacThe, ADC from Bacteroides thetaiotaomicron (Bacteroides thetaiotaomicron VPI-5482) (protein)
chain 1: MMIEVLKSKIHCARVTEANLNYMG
chain 2: SITIDEDLLDAANMIPGEKVYIADNNNGERFETYIIKGERGSGKICLNGAAARKVQPDDIVIIMSYALMDFEEAKSFKPTVIFPDPATNSVVK
B2: CorGlu, ADC from Corynebacterium glutamicum (Corynebacterium glutamicum ATCC 13032) (protein)
chain 1: MLRTILGSKIHRATVTQADLDYVG
chain 2: SVTIDADLVHAAGLIEGEKVAIVDITNGARLETYVIVGDAGTGNICINGAAAHLINPGDLVIIMSYLQATDAEAKAYEPKIVHVDADNRIVALGNDLAEALPGSGLLTSRSI
B3: LisMon, ADC from Listeria Monocytogenes (Listeria monocytogenes EGD-e) (protein)
chain 1: MFRTMMNGKIHRATVTEANLNYVG
chain 2: SITIDSAILEAVDMLPNEKVQIVNNNNGARIETYIIPGEPGSGVICLNGAAARHVQVGDVVIIMSYGMFTDEEAKTHEPKIVVLDEKNHIEMILPEEKAHTTL
B4: BsADC (BacSub), ADC from B. subtilis (Bacillus subtilis subsp. subtilis str. 168) (protein)
chain 1: MYRTMMSGKLHRATVTEANLNYVG
chain 2: SITIDEDLIDAVGMLPNEKVQIVNNNNGARLETYIIPGKRGSGVICLNGAAARLVQEGDKVIIISYKMMSDQEAASHEPKVAVLNDQNKIEQMLGNEPARTIL
B5: CjADC (CorJei), L-aspartate α-decarboxylase from Corynebacterium jeikeium (Corynebacterium jeikeium K411) (protein)
chain 1: MLRTMLKSKIHRATVTQADLHYVG
chain 2: SCTIDADLMEAADILEGEQIDIVDIDNGNRLTTYAITGDRGTGVIGINGAAARLISPGDLVIIIGYAQYSEEDLKNYASRVVFVDGNNKQVELGGDPAQVPDGSGLKNPRHPEA

What follows are molecules tested on N[C@@H](CC(=O)O)C(=O)O (assay: HPLC of beta-alanine, Michaelis-Menten fit). Settings: sodium L-aspartate 1-100 mM, pH 7.0, 37 °C, 5 min.
Type: biochemical, Corynebacterium jeikeium
From the text: HPLC of beta-alanine, Michaelis-Menten fit on CjADC (CorJei), L-aspartate α-decarboxylase from Corynebacterium jeikeium
“CjADC (CorJei), L-aspartate α-decarboxylase from Corynebacterium jeikeium (Corynebacterium jeikeium K411; C26V/I88M)” gave a Km of 3.6 ± 0.2 mM.
In the case of “CjADC (CorJei), L-aspartate α-decarboxylase from Corynebacterium jeikeium (Corynebacterium jeikeium K411; C26V/I88M/R3K/Y90F)”, the Km is reported as 2.2 ± 0.5 mM, the kcat is reported as 209.2 ± 0.8 s⁻¹ and the kcat/Km is reported as 95100 ± 1600 M⁻¹ s⁻¹.
With “CjADC (CorJei), L-aspartate α-decarboxylase from Corynebacterium jeikeium (Corynebacterium jeikeium K411; C26V/I88M/Y90F)” the Km was 2.6 ± 0.6 mM, the kcat was 171.5 ± 0.8 s⁻¹ and the kcat/Km was 61200 ± 1300 M⁻¹ s⁻¹.
“CjADC (CorJei), L-aspartate α-decarboxylase from Corynebacterium jeikeium (Corynebacterium jeikeium K411; C26V/Y90F)” gave a Km of 4.1 ± 0.3 mM.
In the case of “CjADC (CorJei), L-aspartate α-decarboxylase from Corynebacterium jeikeium (Corynebacterium jeikeium K411; I88L/Y90F)”, the Km is reported as 3.9 ± 0.1 mM, the kcat is reported as 88.6 ± 2.8 s⁻¹ and the kcat/Km is reported as 22700 ± 500 M⁻¹ s⁻¹.
For “CjADC (CorJei), L-aspartate α-decarboxylase from Corynebacterium jeikeium (Corynebacterium jeikeium K411; I88M/Y90F)”, the Km was 3.2 ± 0.4 mM.

The molecules below were run on N[C@@H](CC(=O)O)C(=O)O (assay: purified protein). Settings: sodium L-aspartate 1-100 mM, pH 7.0, 37 °C, 5 min.
B1 showed a Km of 8.9 ± 0.4 mM.
For B2, the Km was 4.5 ± 0.1 mM.
B3 showed a Km of 6.0 ± 0.2 mM.
Molecule B4 has a Km of 4.2 ± 0.3 mM.
B5 was tested, and the Km was 3.6 ± 0.2 mM.
